Among the data in patent publication US20250206820A1 are TDCC, EC50 and TNF-α, EC50 (nM), cytokine release in the TDCC co-culture values, retold here.

Changes are numbered by the printed parent chain.

In the assay the target is ILT3 on target cells (MOLM13, OCI-AML-2, NALM-1, THP-1, MM1S, H929, U226B1 and other lines) (human) (UniProt Q8NHJ6). Description: cell-based or functional assay.
Sequence of ILT3 on target cells (MOLM13, OCI-AML-2, NALM-1, THP-1, MM1S, H929, U226B1 and other lines) (human) (Q8NHJ6 22-448, one chain of several): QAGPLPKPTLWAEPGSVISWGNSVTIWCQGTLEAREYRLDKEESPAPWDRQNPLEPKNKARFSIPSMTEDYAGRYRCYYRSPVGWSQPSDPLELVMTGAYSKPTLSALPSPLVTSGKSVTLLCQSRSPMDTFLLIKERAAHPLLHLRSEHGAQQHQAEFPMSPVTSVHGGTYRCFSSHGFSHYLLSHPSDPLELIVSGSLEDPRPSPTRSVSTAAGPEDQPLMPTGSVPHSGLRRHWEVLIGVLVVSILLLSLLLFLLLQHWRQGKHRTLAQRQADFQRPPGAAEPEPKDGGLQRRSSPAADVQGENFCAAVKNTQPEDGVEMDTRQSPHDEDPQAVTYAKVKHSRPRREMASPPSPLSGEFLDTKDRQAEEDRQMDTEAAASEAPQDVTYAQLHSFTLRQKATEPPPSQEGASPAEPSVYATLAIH

B1: 48A6 Fab coupled with CD3 scFv 2B2 (bispecific antibody, part only; not given: CD3 scFv 2B2, V domains shown, part only)
VH: EVQLVESGGDLMKPGGSLKLSCAASGFTFSSYGMSWVRQTPDKRLEWVATISSGGTYTFYPDSVKGRFTISRDNAKNTLYLQMSSLKSEDTAMYYCARRGWLLHYYAMDYWGQGTSVTVSS
VL: NIVLTQSPASLAVSLGQRATISCRPSESVDSFGNSFMHWFQQKPGQPPKLLIYLSSKLESGVPARFSGSGSRTDFTLTIDPVEADDAATYYCQQHNEDPFTFGSGTKLEIK
Consider B1, for which the TDCC, EC50 stood at 0.025 nM and the TNF-α, EC50 (nM), cytokine release in the TDCC co-culture was 2.51 nM.

B2: 48A6 Fab coupled with CD3 scFv 1G4 (bispecific antibody, part only; not given: CD3 scFv 1G4, V domains shown, part only)
VH: B1 VH
VL: B1 VL
B2 showed a TDCC, EC50 of 0.5 nM.

B3: 16C5 Fab coupled with CD3 scFv 1G4 (bispecific antibody, part only; not given: CD3 scFv 1G4, V domains shown, part only)
VH: EVQLQQSGPELVKPGASVKISCKASGYTFTDYNMDWVKQSHGKSLEWIGYIYPSNGGTGYNQKFKSKATLTVDKSSNTAYMELHSLTSEDSAVYYCARVPYYDYLYYYAMDYWGQGTSVTVSS
VL: QIVLSQSPAILSASPGEKVTMACRASSSVSFMHWYQQKPGSSPQPWIYATSNLASGVPARFSGSGSGTSYSLTISRVEAEDAATYYCQQWSTNPYMYTFGGGTKLEIK
In turn, B3 had a TDCC, EC50 of 50.1 nM.

B4: 16C5 Fab coupled with CD3 scFv 2B2 (bispecific antibody, part only; not given: CD3 scFv 2B2, V domains shown, part only)
VH: B3 VH
VL: B3 VL
B4 had a TDCC, EC50 of 3.16 nM and a TNF-α, EC50 (nM), cytokine release in the TDCC co-culture of 398 nM.

B5: 12A12 Fab coupled with CD3 scFv 2B2 (bispecific antibody, part only; not given: CD3 scFv 2B2, V domains shown, part only)
VH: B3 VH with S54N, K65N, N77S, R98S, V99S, L105V, Y106G, Y107S
VL: QIVLTQSPAIMSASLGERVTMTCTASSSVSSSYLHWYQQKPGSSPKLWIYSTSNLASGVPARFSGSGSGTSYSLTISSMEAEDAATYYCHQYHRSPRTFGGGTKLEIK
B5 yielded a TDCC, EC50 of 3.16 nM and a TNF-α, EC50 (nM), cytokine release in the TDCC co-culture of 2510 nM.

B6: 12A12 Fab coupled with CD3 scFv 1G4 (bispecific antibody, part only; not given: CD3 scFv 1G4, V domains shown, part only)
VH: B3 VH with S54N, K65N, N77S, R98S, V99S, L105V, Y106G, Y107S
VL: B5 VL
Consider B6, for which the TDCC, EC50 was 251 nM.

B7: Hz45G10 Fab coupled with CD3 scFv 1G4 (bispecific antibody, part only; not given: CD3 scFv 1G4, V domains shown, part only)
VH: EVQLVESGGGLVQPGGSLRLSCAASGFTFSDYGMHWVRQAPGKGLEWVAYIFSGSSTIYYADTVKGRFTISRDNAKNSLYLQMNSLRAEDTAVYYCARADGRGAMDYWGQGTLVTVSS
VL: DIQMTQSPSSLSASVGDRVTITCRASQDISKFLNWYQQKPGKAPKLLIYYTSRLHSGVPSRFSGSGSGTDFTFTISSLQPEDIATYFCQQGNTLPWTFGGGTKLEIK
Molecule B7 came in with a TDCC, EC50 of 1.26 nM.

B8: 3A3 Fab coupled with CD3 scFv 2B2 (bispecific antibody, part only; not given: CD3 scFv 2B2, V domains shown, part only)
VH: QVQLKESGPGLVAPSQSLSITCTVSGFSLTSYGVHWVRQPPGKGLEWLGVIWPGGTINYNSALMSRLSISKDNSKSQVFLKLNSLQTDDTAMYYCASDKYDGGWFAYWGQGTLVTVSA
VL: DIVMTQSQKFMSTSVGDRVSITCKASQNVRTAVAWYQQKPGQSPEALIYLASNRHTGVPDRFTGSGSGTDFSLSISNVQSEDLADYFCLQHLNYPLTFGSGTKLEIK
In turn, B8 displayed a TDCC, EC50 of 0.4 nM and a TNF-α, EC50 (nM), cytokine release in the TDCC co-culture of 79.4 nM.

B9: 3A3 Fab coupled with CD3 scFv 1G4 (bispecific antibody, part only; not given: CD3 scFv 1G4, V domains shown, part only)
VH: B8 VH
VL: B8 VL
In the case of B9, the TDCC, EC50 came out at 50.1 nM.

B10: 53F10 Fab coupled with CD3 scFv 2B2 (bispecific antibody, part only; not given: CD3 scFv 2B2, V domains shown, part only)
VH: EVQVVESGGGLVKPGGSLKLSCAASGFTFSDYGMHWVRQAPEKGLEWVAYISTGIITVYYADTVKGRFTMSRDNAKNTLFLQMTSLRSEDTAIYYCARADGRGAMDYWGQGTSVIVSS
VL: DIQMTQTTSSLSASLGDRVTISCRASQDISNFLNWYQQKPDGTVTLLIYYTSRLHSGVPSRFSGSGSGTDYSLTISNLEQEDFATYFCQQGNTLPWTFGGGTKLEIK
In turn, B10 showed a TDCC, EC50 of 0.013 nM and a TNF-α, EC50 (nM), cytokine release in the TDCC co-culture of 2 nM.

B11: 53F10 Fab coupled with CD3 scFv 1G4 (bispecific antibody, part only; not given: CD3 scFv 1G4, V domains shown, part only)
VH: B10 VH
VL: B10 VL
With B11, the TDCC, EC50 is 2 nM.
